# Publication PMC11610669, “A Spectroscopic Study on the Amyloid‐β Interaction with Clicked Peptide‐Porphyrin Conjugates: a Vision Toward the Detection of Aβ Peptides in Aqueous Solution” (Chembiochem, 2024)
# Biological target: T1, Amyloid-β 42 peptide (UniProt P05067 672-713)
# T1 construct: Amyloid-β peptide 1-42 (Aβ42), the cut product of the amyloid precursor protein; numbers count on: the Aβ peptide; For GCI it was immobilised on a polycarboxylate chip from Na acetate pH 4.5; also called Aβ42; Aβ
# Assay: grating-coupled interferometry (GCI); Creoptix WAVE; Aβ42 immobilised on a 4PCH chip (1910±40 pg/mm^2); analytes injected as single-cycle 1:2 dilution series in PBS, 0.005 % Tween 20, 1 % DMSO, 0.2 mg/ml BSA; 25 °C; 100 μl/min; mass transport binding model with bulk correction
# Details: both partners purified
# T1 sequence (P05067 672-713): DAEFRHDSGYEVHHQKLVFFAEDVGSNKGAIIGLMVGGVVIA
Binder,Kd,koff,kon
"Ac-GKPGKLVFF-NH2 (not fully specified (residue 2); also: porphyrin as Cu(II) complex, designed N-terminal stretch of Ac-GK(N3)PGKLVFF-NH2; the K is the azidolysine that carries the porphyrin; hydrophobic core Aβ16-20 (KLVFF) of amyloid-β; numbers count on: the Aβ peptide; MALDI-TOF (M+H)+ 1937.73; calcd. for C103H118CuN22O13 1936.77; Structure drawn in Scheme 1; source: synthetic peptide (MW-SPPS), clicked in solution to Cu-Ph-Pra-OMe (CuAAC), purified by preparative HPLC) [copper porphyrin-peptide conjugate Cu-Ph-Pep]",44 ± 6 µM,0.0931 s⁻¹,2100 M⁻¹ s⁻¹
"Ac-GKPGKLVFF-NH2 (not fully specified (residue 2); also: porphyrin as Zn(II) complex, designed N-terminal stretch of Ac-GK(N3)PGKLVFF-NH2; the K is the azidolysine that carries the porphyrin; hydrophobic core Aβ16-20 (KLVFF) of amyloid-β; numbers count on: the Aβ peptide; MALDI-TOF (M+H)+ 1939.43; calcd. for C103H119ZnN22O13 1938.60; Structure drawn in Scheme 1 and Scheme 3; source: synthetic: Ph-Pep metalated with Zn(CH3COO)2, purified by RP-HPLC) [zinc porphyrin-peptide conjugate Zn-Ph-Pep]",46 ± 6 µM,0.002 s⁻¹,110 M⁻¹ s⁻¹
"Ac-GKPGKLVFF-NH2 (not fully specified (residue 2), designed N-terminal stretch of Ac-GK(N3)PGKLVFF-NH2; the K is the azidolysine that carries the porphyrin; hydrophobic core Aβ16-20 (KLVFF) of amyloid-β; numbers count on: the Aβ peptide; MALDI-TOF (M+H)+ 1876.12; calcd. for C103H121N22O13 1875.24; Structure drawn in Scheme 1 and Scheme 3; source: synthetic peptide (MW-SPPS), clicked on resin to Pra-OMe (CuAAC), porphyrin coupled on resin, cleaved …) [unmetalated porphyrin-peptide conjugate Ph-Pep]",60 ± 1 µM,0.0819 s⁻¹,1370 M⁻¹ s⁻¹
